Holding throughout (assay): cell-based or functional assay
Assay [1] addresses SARS-CoV-2 spike protein with K444N (SARS-CoV-2) (UniProt P0DTC2).
The target in assay [2] is SARS-CoV-2 spike protein with K444Q (SARS-CoV-2) (UniProt P0DTC2).
Assay [3] addresses SARS-CoV-2 spike protein with V445A (SARS-CoV-2) (UniProt P0DTC2).
In assay [4] the target is SARS-CoV-2 spike protein with N439K (SARS-CoV-2) (UniProt P0DTC2).
The target of assay [5] is SARS-CoV-2 spike protein with K444T (SARS-CoV-2) (UniProt P0DTC2).

mAb10987 (antibody): the reduced susceptibility (fold; neutralization) was over 755 fold in assay [1], over 548 fold in assay [2], 548 fold in assay [3] and over 1030 fold in assay [5]. This substance registered a reduced susceptibility (fold; neutralization assays using pseudotyped VSV) in assay [4] of 463 fold.

Values taken from patent US20210395345A1.
